Values quoted from earlier work as cited in article PMC4070439.

Key:
[1] = target: IL-12Rβ1 (high affinity site) (Mus musculus) (UniProt Q60837)
[2] = target: IL-12Rβ1 (low affinity site) (Mus musculus) (UniProt Q60837)

- Kd [1]: 0.005 nM
- Kd [2]: 15 nM
Substance: IL-12 p40 homodimer (from UniProt P43432)
